Measurements taken from a protein production outcome set (Wang et al. 2014).

Assay: label from the status in PepcDB records

Sequence	protein production
MWIGSVFMRKSFVISLLSAGILLAGCQAVNTTSGGAVGVERQQYMFSMLSTDEVNQMYAQSYQQTLGEASSKGVLDKSSADAKRVQAIANRLIAQAPKFRPDAAQWDWQVNVIKSDELNANCGPGGKIIVYTGLIDQLKLTDAEIAAVVGHEIAHALREHSREAMSKAYGVEMARQGAGAIFGLGQSSMAMADTVVNYAMTLPNSRANENEADLIGLELSARAGYDPNAAITLWNKMSKASEGAPPEFMSTHPASASRIASLQAAIPKVMPLYQAAAKP	failed
ADEEESTPCDNVETDQQTFACAAFNKQVAERELQSAYDELIERMRDQFGDEAGLMSRIEAAEKVWSQLRDADCKVETHAEQPGSNAYQIAWNSCIAQRSDERAEYLRSLGSQNSDEPAPED	not failed
MVDAASTGLFLDAAGMKALGAAIAIAVTGLASAIAEKDIGTAAIGAMAENEGLFGKGLILTVIPETIVIFGLVVALLINQ	failed
SWKQAVRPCLRLPNFRFDWTSFNVLSAQKRWVKSFSTAVSIKEDPFWSAPLKKVLENHPETQYAYPDSTTVLECARGLVRDDLSSVLVFENVQDKLRWIGIFSERDIVRKVASQGLPLEKTQLKKAYTTRDRVETITVDKTVQDVVDILVSKDVQNIAVLYQKKHGDAFREDCYGVLTSRDLSTFFLSIPENDRSFFEQQTVKDVLESKGLDRSGDNTVYQIHQSVSVDEAIQKMDDHKVGTLLVTQSGK	failed
MEWGGLDERQICWQVNGRGGQGLAGCSFLRGVRKRSRPPRLLPSRPPAAMSTFERHIIKRLLKGFVLFVGALLVFFIVLHWVEYSDDFLDGGATIWEVFTVFYPNYVPEIIRLTSPLALFLSCIYLTGTLAQELQLVALQTSGVSLYQLMRPYLGVGLLVTVFMFGFNGWVVPKTNEVVVRYENEYLPGNQKSVQTSEIHRRNGPNSILSVGYYDADRERAHTVSLQQLAGDARLARRVDANRMEWDDSLEVWRLDDVTRRTFVKGETQRKRTIASLDTTLQVYPRDLARSKNDVAAMTIPAAAEYLAALRRSGVGGLTRPLVAYYNKFAYPFANLLLVLIGVPIASTRRRGGQAVRFAIGLLIAFVYLSVQKLAEPLGYAGTLSPAWTAWLPHLTFAVVALLVLWWARK	failed
MNLYADYEYYTSTYKGNLAKEEFEKSIMKASAYVRRITFGRADDNMEMEEVKLAACSVCDLIANDEKVRSKHSGRAVTSENTDGYSVSYESGGNGETADDLLKRNIFDTLLLYLEPTRLLYMGVELLEHHHHHH	not failed
GQYALTNGDPLNGHCYLSGYISLLLRAEPYPTSRYGSQCMQPNNIMGIENICELAARLLFSAVEWARNIPFFPDLQITDQVSLLRLTWSELFVLNAAQCSMPLHVAPLLAAAGLHASPMSADRVVAFMDHIRIFQEQVEKLKALHVDSAEYSCLKAIVLFTSDACGLSDAAHIESLQEKSQCALEEYVRSQYPNQPSRFGKLLLRLPSLRTVSSSVIEQLFFVRLVGKTPIETLIRDMLLSGSSFNWPYMSIQCS	failed
MSMATPSSAQRFNDRVAAYVRYRPSYPPQLLRWLHGELGVTPATAVADIGAGTGISSRLFLEAGYAVTAVEPNQAMREAALQWLAEFPKFQAIDGTAEATGLADASVGLVSAAQAFHWFDMQAVRDEWARILQPGGLAVVYWNSRELDSTAFLRGYEQLLLDYGTDYSAVAERYQDDATMQAWFGEGFRAMARFPNVQRLDFESLRGRLLSSSYAPLAHDPRHAPMLAALRTLFDAYAHDGLIDFQYQTRVFAGRLN	failed
MPYVPTPKPVVDRMLELADVDETDVLYDLGSGDGRIVIRAARTHGARGVGIEIDPDLVKKARKNAKEAGVADLVEFRQGDLFEADISEATVVTLYLLPSVNQKLRPILFEQLSPGTPVVSHDFDMGRWAPDRTVDLEGDTVYRWTIPEEIPEDLDELEHHHHHH	not failed
MFYPDPFDVIIIGGGHAGTEAAMAAARMGQQTLLLTHNIDTLGQMSCNPAIGGIGKGHLVKEVDALGGLMAKAIDQAGIQFRILNASKGPAVRATRAQADRVLYRQAVRTALENQPNLMIFQQAVEDLIVENDRVVGAVTQMGLKFRAKAVVLTVGTFLDGKIHIGLDNYSGGRAGDPPSIPLSRRLRELPLRVGRLKTGTPPRIDARTIDFSVLAQQHGDNPMPVFSFMGNASQHPQQVPCYITHTNEKTHDVIRSNLDRSPMYAGVIEGVGPRYCPSIEDKVMRFADRNQHQIFLEPEGLTSNEIYPNGISTSLPFDVQMQIVRSMQGMENAKIVRPGYAIEYDFFDPRDLKPTLESKFIQGLFFAGQINGTTGYEEAAAQGLLAGLNAARLSDDKEGWAPARSQAYLGVLVDDLCTLGTKEPYRMFTSRAEYRLMLREDNADLRLTEIGRELGLVDDERWARFNEKLENIERERQRLKSTWVTPSAEAAAEVNAHLTAPLSREASGEDLLRRPEMTYEKLTTLTPFAPALTDEQAAEQVEIQVKYEGYIARQQDEIEKQLRNENTLLPATLDYRQVSGLSNEVIAKLNDHKPASIGQASRISGVTPAAISILLVWLKKQGMLRRSA	not failed
MASGKQFMKKPIVWTIAGVDSSGLAGVHADMETFSRLNVRACSVITAVTAQNAHSIIAVEEISRDQVAAQCRALELNLKPDAIKIGMLCSTPICEEIAYFLKGYEGFVVLDPIITSSSGTNLFFPDLQQHKNNLIQLFPYITIITPNRIEAEIILNRSIYSYQDIINAASDLLSLGAKQVLLKGGHVKDNSFSQDYWTDGKESFWIANRRFPETNYRGTGCVLSSALTACLALGYSIKDAIVIAKMYVNRGIRQSIEIDKDASQLYHDGWPEDEADLPYLSPTPFIKPVPSFKKYSMGFYPIVDSSHWLEMLLPLGIKCIQLRIKEASQERLEEEIKRSVHLANQYNAALFINDHWELAIHYGAAGVHLGQEDLEKADVDRINRSGLFLGISTHCYYEVARAHALNPSYVACGPIYETTSKIMPFQAQGIARLERWRKTLRYPLVAIGGITLKNLSDVLKTKIDGVSVISAITKASAPLVAAKQFLTQMNESHNE	failed
MVSRLVLGCGTVGHAVIGSLADRRGELFVFDGDESRVDSLRNESVAAEVRDVTDPAAITLPDRSVDMVVVAGERADRNRLAAIAADAAHPDAGLVVYLGFDATPKDRHRIDSVADRVVDPGAELLSHANSLTESGASQRLQALRQTLQGIDGRLGVFMHDNPDPDAIAAAVGLQRIAEDAGVDSQACYFGEISHQENRAFVNLLEFDLRNVETQSDAEFDAVALVDHSGPGVNDQLAPDTDVDIVIDHHPPTTDVDAGFTDIRPDTGATSTILVEYLRGYGIDVRTAVATALLYGIRVDTDDFAREITPRDFTAAAWLLPNADTDVLERIEAPSLSADTFDTIAAGIRNRQLNGSVLASCVGQITARDTLAQTADRLLAMRGVAVTFVYGYFDGTIYVSARSRRKDLDLGAVLRSAFDDLGSAGGHADMAGAQLPLGLFDAVGEDAATTLTEMIEEVVASRFFEEVHGGTSGIQQGE	failed
MAHPPQIRIPATYLRGGTSKGVFFRLEDLPESCRVPGEARDRLFMRVIGSPDPYAAHIDGMGGATSSTSKCVILSKSSQPGHDVDYLYGQVSIDKPFVDWSGNCGNLSTGAGAFALHAGLVDPARIPEDGICEVRIWQANIGKTIIAHVPVSGGQVQETGDFELDGVTFPAAEIVLEFLDPSDDGEDGGAIFPTGNLVDDLEVPGVGTFKATMINAGIPTVFVNAEEIGYRGTELREEINGDPQQLARFERIRVAGALRMGLIKTPEEAATRQHTPKIAFVAPPRDYRTASGKLVAAGDIDLLVRALSMGKLHHAMMGTAAVAIGTAAAIPGTLVNLAAGGGERSAVRFGHPSGTLRVGAEASQANGEWTVTKAIMSRSARILMEGWVRVPGDAF	not failed
MDMVTVTAKTVEEAVTKALIELQTTSDKLTYEIVEKGSAGFLGIGSKPAIIRAKRKETLQDKAIEFLEQVFDAMNMAVDISVEYNETEKEMNVNLKGDDMGILIGKRGQTLDSLQYLVSLVVNKSSSDYIRVKLDTENYRERRKETLETLAKNIAYKVKRTKRSVSLEPMNPYERRIIHAALQNDKYVVTRSDGEEPFRHVIISLKRENRRDRNDRSDRNEK	not failed
MSSMGDQRGTRVYVGNLTDKVKKDDLEGEFTKYGKLNSVWIAFNPPGFAF	failed
MQRFIDNSLESNWLWLTARICLALMFVASGLAKLFDYQASLEEMRAAGLEPAWLFNIATAVTLLAGSALVLLDRKLWLGAGALAVFLLLTILIVHTFWSKTGVEAKLAMFFALEHIAVIGGLIATAIASAQRQRLRQDVSVAATYQKA	failed
ELREARLNAFFSGAPVGMSILDNQLRFVQINELIAHIHGKPAQEHIGKTLEEIAPRIAPLVTPLCQKVLLTGQPILNVELSLPAVNQADSLRHFLVSYFPIPGEGNQLSGVGKVIVEISDVYDELRLRKRAEEALKESI	not failed
MIKVEKEVSNDYIIKGFKHFTQLATEYFQGHPDCNAARKRMRDTIDANLQLKAELTAASYTEHTTLLSPKMQQIIWAHWGPPIISLSENHANELEHHHHHH	failed
MSNSSMSVVILAAGKGTRMYSDLPKVLHPLAGKPMVQHVIDAAMKLGAQHVHLVYGHGGELLKKTLADPSLNWVLQAEQLGTGHAMQQAAPHFADDEDILMLYGDVPLISVDTLQRLLAAKPEGGIGLLTVKLDNPSGYGRIVRENGDVVGIVEHKDASDAQREINEINTGILVANGRDLKRWLSLLDNNNAQGEFYITDIIALAHADGKKIATVHPTRLSEVEGVNNRLQLSALERVFQTEQAEKLLLAGVMLLDPSRFDLRGELTHGRDITIDTNVIIEGHVILGDRVRIGTGCVLKNCVIGDDSEISPYTVLEDARLDANCTVGPFARLRPGAELAEGAHVGNFVEIKKARLGKGSKAGHLSYLGDAEIGAGVNIGAGTITCNYDGANKFKTIIGDDVFVGSDTQLVAPVTVANGATIGAGTTVTRDVAENELVISRVKQVHIQGWKRPVKKK	not failed
MFGLSKRAITILFGLLALAFALGAILLFTPQAGQQTRGKPVLWVNGKALYELDLLRLQGNDPLYAASPEGLLKTLVDTYFLEQVILTEALKQDAARVRVSSAEVRQEVNRIREQFGLKDKAAYEQFLNQVGYTDAQLRAEVKTQLQIQKRLEQIRSGAKPTEEEVRFYYEVFKENYRTEPRVKARQIVVDDKALAEELAAKAKAGEDFAALARQHSKVGAEQGGALGAGPGEAEPKPVTQVVFPTEVGEAVFALKGPGVVGPIAAGGRYYIVKVEEYLPSTLPAFEEVKDRVAQDAERAKGNGVLEAYLEELRKKAQVRFAEDNPYAYQNPPVAKVNEKEILLSEVLQPVFSNQQTVALVQQGLGELAVQFFLPQTLENLIDRELLVEAARKSGKPFIGSKAEIAEAYLRYETRDVTASEEEARAFYSENPALFTVPASAKVIGVNFKEEAQAKAFRAAALRGGDLEALAKAQEGTVTDYGTVNPNQLPAVLDRLVFKITETFPQGPLGEVSEVIKMEDGSYTVLLISDRKAEELKGFAQVAEEARQGAVNRKRSEKAQALIQALREEAKIENRLAEVLQALTPKTPSQDQPNSQEQPQPEEAPANNP	failed
MNNFTYEKLHNNLQYLKLNTIEELLDNCLEIAARDSKTTMEVLDYLFEQEKKHREAAAIERRMKSAGFPVKKMLEEFDFEFQSSINKKVIEDLATLRFVHNAENIVLLGPPGVGKSHLAIALGIEAVKAGISVHFTNTGNLIERLKIANREGILEKKIRDLMKFKVLIIDEIGYLPFDDEGAHCLFQLISRRYEKSSTILTSNKSYGEWGEIFKDHVIAAALLDRILHHCTTINIKGESYRLKERKKQGIKTGLIRHNSTEILENLEHHHHHH	not failed
GAAGPWRLPIGNSVVASSPPVLQANAETWLDFTDLVFIDPVGTGYSRFVASGDEVRKHFYAVEGDISAMAVVIRRWLEKNDRLVSPKYLAGESYGGIRGPKVVDNLQTKQGVGVNGLILVSPVLDFRDLSGSSLLQYAARLPSMTAVARQQKGKVNRADLADVESYARSEFLTDLVKGEADKEATTRLADRVSALTGIDKTVSRRLAGRFDTREFQREFDRDRGRVTGRFDGAKLGLDPFPDSSAAHFGDPSADSLIAPLTSAAVQLTRSTLNWKPDGSYELLNGSVAEQWDFGRGRQPLESTTQLREILSVDPSLQVLVTGGLFDLAAPYFGTQMVLDQLPPTLAEKRVKFVVYPGGHMFYAEDAARQSLHDEVKAMMK	failed
